Publication PMC11093223 (2024)

Assays:
[1] = target: TBC1D23 C-terminal domain K672A (mouse, UniProt Q8K0F1 559-677, K672A); experiment: ITC
[2] = target: TBC1D23 C-terminal domain (mouse, UniProt Q8K0F1 559-684); experiment: ITC
Chain of TBC1D23 C-terminal domain (Q8K0F1 559-684): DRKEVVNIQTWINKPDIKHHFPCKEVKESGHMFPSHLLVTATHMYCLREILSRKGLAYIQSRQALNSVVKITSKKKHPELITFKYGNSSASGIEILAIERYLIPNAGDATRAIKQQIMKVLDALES

Chain of TBC1D23 C-terminal domain K672A (Q8K0F1 559-677 K672A): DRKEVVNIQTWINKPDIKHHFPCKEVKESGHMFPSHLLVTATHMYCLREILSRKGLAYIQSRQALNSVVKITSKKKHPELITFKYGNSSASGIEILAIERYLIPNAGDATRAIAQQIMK

Kd [1]	Kd [2]	Binder
27.5 µM		DDNTLYHRGFTED [syntaxin-16 (209–221) peptide]
	10.3 µM	DDNTLYHAGFTED [STX16 R216A]
	> 200 µM	AANTLYHRGFTED [STX16 DD209-210AA]
